Positions count from the first letter of the chain named.
T1: Human TROP2 Protein, His Tag (Acro Biosystems) (human, UniProt P09758 27-274)
T1 construct: not shown: His tag
T1 sequence (looked up): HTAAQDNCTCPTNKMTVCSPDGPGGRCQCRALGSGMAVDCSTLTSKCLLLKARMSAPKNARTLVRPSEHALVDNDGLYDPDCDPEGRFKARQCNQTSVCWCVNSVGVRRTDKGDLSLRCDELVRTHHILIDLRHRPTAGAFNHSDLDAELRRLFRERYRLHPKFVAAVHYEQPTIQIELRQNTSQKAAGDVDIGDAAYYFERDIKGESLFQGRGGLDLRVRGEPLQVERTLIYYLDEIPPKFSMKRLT

T2: Human TROP2 Protein, His Tag (Acro Biosystems) (human, UniProt P09758 27-274)
T2 construct: not shown: His tag
T2 sequence (looked up): T1 sequence (looked up)

T3: TROP2 on TROP2-positive NCI-H1975 cells (human, UniProt P09758 27-323)
T3 construct: whole, on cells
T3 sequence (looked up): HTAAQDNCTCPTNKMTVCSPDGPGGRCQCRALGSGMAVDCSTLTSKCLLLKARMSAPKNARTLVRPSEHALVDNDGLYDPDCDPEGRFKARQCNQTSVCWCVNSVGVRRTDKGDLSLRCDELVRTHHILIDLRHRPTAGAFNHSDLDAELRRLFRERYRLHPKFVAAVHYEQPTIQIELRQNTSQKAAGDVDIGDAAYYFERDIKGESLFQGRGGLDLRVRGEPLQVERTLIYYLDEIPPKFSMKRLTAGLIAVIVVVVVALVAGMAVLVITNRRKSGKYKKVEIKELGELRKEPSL

T4: Human TROP2 Protein, His Tag (Acro Biosystems) (human, UniProt P09758 27-274)
T4 construct: Bought protein; also called TACSTD2; not shown: His tag
T4 sequence: T1 sequence (looked up)

B1: MYT12351 (antibody, V domains shown)
VH: QVQLQQSGSELKKPGASVKVSCKASGYTFTNYGMNWVKQAPGQGLKWMGWINTYTGEPTYTDDFKGRFAFSLDTSVSTAYLQISSLKADDTAVYFCARGGFGSSYWYFDVWGQGSLVTVSS
VL: DIQLTQSPSSLSASVGDRVSITCKASQDVSIAVAWYQQKPGKAPKLLIYSHSYRYTGVPDRFSGSGSGTDFTLTISSLQPEDFAVYYCQQHHITPLTFGAGTKVEIK
notes: sacituzumab VL 51, 92 -> H
B2: MYT11635 (antibody, human IgG1, V domains shown)
VH: QVQLVQSGAEVKKPGASVKVSCKASGYTFTTAGMQWVRQAPGQGLEWMGWINTHSGVPKYAEDFKGRVTISADTSTSTAYLQLSSLKSEDTAVYYCARSGFGSSYWYFDVWGQGTLVTVSS
VL: B1 VL with L4M, S20T, I31T, H51A, D60S, H92Y, A100Q, V104L
notes: IgG; also called Datopotamab WT; Datopotamab
B3: MYT11566 (antibody, human IgG1, V domains shown)
VH: B1 VH
VL: B1 VL with H51A, H92Y
notes: IgG; also called Sacituzumab WT; Sacituzumab
B4: MYT13370 (antibody, human IgG1, V domains shown)
VH: B1 VH with D63H
VL: B1 VL with S30H, V33H, H51A, H92Y
notes: IgG; also called Sacituzumab HC-LC pairing variant
B5: MYT12352 (antibody, V domains shown)
VH: B1 VH
VL: B1 VL with H92Y, I93H
notes: sacituzumab VL 51, 93 -> H
B6: MYT11670 (antibody, human IgG1, V domains shown)
VH: B2 VH with S104H
VL: B1 VL with L4M, S20T, I31T, H51A, D60S, H92Y, A100Q, V104L
notes: IgG
B7: MYT13369 (antibody, human IgG1, V domains shown)
VH: B1 VH with D62H
VL: B1 VL with S30H, V33H, H51A, H92Y
notes: as for B4
B8: MYT12374 (antibody, V domains shown)
VH: B1 VH
VL: B1 VL with Y53H, Q89H, H92Y
notes: sacituzumab VL 51, 53, 89 -> H
B9: MYT11699 (antibody, V domains shown)
VH: B2 VH
VL: B1 VL with L4M, S20T, I31T, H51A, D60S, H92Y, I93H, A100Q, V104L
notes: IgG; also called Datopotamab LC variant
B10: MYT12376 (antibody, V domains shown)
VH: B1 VH
VL: B1 VL with Q89H, H92Y, I93H
notes: sacituzumab VL 51, 89, 93 -> H
B11: MYT12364 (antibody, V domains shown)
VH: B1 VH
VL: B1 VL with H51A, Q89H, H92Y, I93H
notes: sacituzumab VL 89, 93 -> H
B12: MYT12353 (antibody, V domains shown)
VH: B1 VH
VL: B1 VL with H51A, S52H, Y53H, H92Y
notes: sacituzumab VL 52, 53 -> H
B13: MYT12377 (antibody, V domains shown)
VH: B1 VH
VL: B1 VL with H51A, Y53H, Q89H, H92Y, I93H
notes: sacituzumab VL 53, 89, 93 -> H
B14: MYT11614 (antibody, human IgG1, V domains shown)
VH: B1 VH
VL: B1 VL with S30H, H51A, H92Y
notes: IgG; also called Sacituzumab LC variant
B15: MYT12357 (antibody, V domains shown)
VH: B1 VH
VL: B1 VL with H51A, S52H, H92Y, I93H
notes: sacituzumab VL 52, 93 -> H
B16: MYT12412 (hu7E6SVG variant, HCV substitutions at 33, 103) (antibody, V domains shown)
VH: QVQLQESGPGLVKPSETLSLTCTVSGGSISSYHVHWIRQPPGKGLEWIGVIWTSGVTDYNSALMGRVTISVDTSKNQFSLKLSSVTAADTAVYYCARDGDYDHYTMDYWGQGTLVTVSS
VL: DIVMTQSPDSLAVSLGERATINCRASKSVSTSGYSYMHWYQQKPGQPPKLLIYLASNLESGVPDRFSGSGSGTDFTLTISSLQAEDVAVYYCQHSRELPYTFGQGTKLEIK
B17: MYT11704 (antibody, human IgG1, V domains shown)
VH: B16 VH with H33G, H103R
VL: B16 VL
notes: IgG; also called hu7E6SVG WT; hu7E6SVG
B18: MYT12459 (antibody, human IgG1, V domains shown)
VH: B16 VH with H33G, H103R
VL: B16 VL with E59H, Q93H, E97H
notes: IgG; also called hu7E6SVG LCC his scan variant
B19: MYT12464 (hu7E6SVG variant, LCV substitutions at 60, 93, 94 (Ala at 94)) (antibody, V domains shown)
VH: B16 VH with H33G, H103R
VL: B16 VL with S60H, Q93H, H94A
notes: Full IgG in Expi293 supernatant
B20: MYT12413 (hu7E6SVG variant, HCV substitutions at 33, 106) (antibody, V domains shown)
VH: B16 VH with H103R, M106H
VL: B16 VL
B21: MYT12465 (hu7E6SVG variant, LCV substitutions at 60, 93, 97) (antibody, V domains shown)
VH: B16 VH with H33G, H103R
VL: B16 VL with S60H, Q93H, E97H
notes: as for B19
B22: MYT12456 (hu7E6SVG variant, LCV substitutions at 59, 60, 97) (antibody, V domains shown)
VH: B16 VH with H33G, H103R
VL: B16 VL with E59H, S60H, E97H
notes: as for B19
B23: MYT12458 (hu7E6SVG variant, LCV substitutions at 59, 93, 94 (Ala at 94)) (antibody, V domains shown)
VH: B16 VH with H33G, H103R
VL: B16 VL with E59H, Q93H, H94A
notes: as for B19
B24: MYT12462 (hu7E6SVG variant, LCV substitutions at 59, 94, 101 (Ala at 94)) (antibody, V domains shown)
VH: B16 VH with H33G, H103R
VL: B16 VL with E59H, H94A, T101H
notes: as for B19
B25: MYT12460 (hu7E6SVG variant, LCV substitutions at 59, 93, 101) (antibody, V domains shown)
VH: B16 VH with H33G, H103R
VL: B16 VL with E59H, Q93H, T101H
notes: as for B19
B26: MYT12461 (hu7E6SVG variant, LCV substitutions at 59, 94, 97 (Ala at 94)) (antibody, V domains shown)
VH: B16 VH with H33G, H103R
VL: B16 VL with E59H, H94A, E97H
notes: as for B19
B27: MYT12457 (hu7E6SVG variant, LCV substitutions at 59, 60, 101) (antibody, V domains shown)
VH: B16 VH with H33G, H103R
VL: B16 VL with E59H, S60H, T101H
notes: as for B19

Key:
[1] = target: T1, Human TROP2 Protein, His Tag (Acro …); assay: BLI (Octet) [2/2]
[2] = target: T2, Human TROP2 Protein, His Tag (Acro …); assay: Octet (BLI); antigen and pH not given
[3] = target: T3, TROP2 on TROP2-positive NCI-H1975 cells; assay: binding to TROP2-positive NCI-H1975 cells at pH 6.7
[4] = target: T3, TROP2 on TROP2-positive NCI-H1975 cells; assay: binding to TROP2-positive NCI-H1975 cells at pH 5.4
[5] = target: T3, TROP2 on TROP2-positive NCI-H1975 cells; assay: binding to TROP2-positive NCI-H1975 cells at pH 7.4
[6] = target: T4, Human TROP2 Protein, His Tag (Acro …); assay: BLI (Octet)
[7] = target: T4, Human TROP2 Protein, His Tag (Acro …); assay: BLI (Octet), antibody on anti-human Fc sensor, human TROP2-His in solution; legend: 3=No binding

Binder	Kd [2] [nM]	Octet response at 33.33 nM (Y-Axis) nm [2] [nm]	IC50 [3] [nM]	IC50 [4] [nM]	IC50 [5] [nM]	binding result [7]	further results
B1	–	–	–	–	–	–	binding result [1]: binds
B2	1.25	0.13	0.54	0.48	0.51	–	–
B3	0.6	0.157	0.94	1.15	1.05	–	–
B4	1.36	0.155	1.86	~45	0.84	–	–
B5	–	–	–	–	–	–	binding result [1]: binds
B6	10.9	0.0891	1.42	1.83	1.61	–	–
B7	0.14	0.167	1.02	~25	0.63	–	–
B8	–	–	–	–	–	–	binding result [1]: binds
B9	3.52	0.0968	1.16	4.58	0.73	–	–
B10	–	–	–	–	–	–	binding result [1]: binds
B11	–	–	–	–	–	–	binding result [1]: binds
B12	–	–	–	–	–	–	binding result [1]: binds
B13	–	–	–	–	–	–	binding result [1]: binds
B14	0.75	0.149	1.06	~5	0.82	–	–
B15	–	–	–	–	–	–	binding result [1]: binds
B16	–	–	–	–	–	–	binding result [6]: binds
B17	4.4	0.118	0.97	1.29	0.98	–	–
B18	6.02	0.0906	1.67	~30	1.42	–	–
B19	–	–	–	–	–	no binding (tested: 50 nM)	–
B20	–	–	–	–	–	no binding (tested: 50 nM)	–
B21	–	–	–	–	–	no binding (tested: 50 nM)	–
B22	–	–	–	–	–	no binding (tested: 50 nM)	–
B23	–	–	–	–	–	no binding (tested: 50 nM)	–
B24	–	–	–	–	–	no binding (tested: 50 nM)	–
B25	–	–	–	–	–	no binding (tested: 50 nM)	–
B26	–	–	–	–	–	no binding (tested: 50 nM)	–
B27	–	–	–	–	–	no binding (tested: 50 nM)	–

Source: patent US20260274985A1 (MYTHIC THERAPEUTICS, published 2026)
